The text below walks through data of PMC3959648, “Screening protein – Single stranded RNA complexes by NMR spectroscopy for structure determination☆”.

What all share (details): protein: recombinant; tags: N-terminal His tag removed by TEV
For data set [1], the target named is T1, T-STAR KH (UniProt O75525 50-160).
T1 sequence: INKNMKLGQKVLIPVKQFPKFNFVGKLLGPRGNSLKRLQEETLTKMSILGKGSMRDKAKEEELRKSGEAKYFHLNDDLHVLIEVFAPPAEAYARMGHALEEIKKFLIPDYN
Nature of the data set: NMR TOCSY; 100% D2O; chemical exchange, possibly multiple registers; T-STAR KH: 10 mM Tris-HCl pH 7 (also given as pH 6.5, 50 mM NaCl, 30 C); Sam68 KH: 20 mM sodium phosphate pH 7.0, 50 mM NaCl, 20 C; about 0.2 mM protein, protein:RNA 1:0.5 and 1:1.

The target of data set [2] is T2, Sam68 KH (UniProt Q07666 150-260). Nature of the data set: NMR 15N-1H HSQC CSP; slow exchange; strong affinity; T-STAR KH: 10 mM Tris-HCl pH 7 (also given as pH 6.5, 50 mM NaCl, 30 C); Sam68 KH: 20 mM sodium phosphate pH 7.0, 50 mM NaCl, 20 C; about 0.2 mM protein, protein:RNA 1:0.5 and 1:1.
The next data set addresses T3, T-STAR KH-QUA2 (UniProt O75525 50-183).
T3 sequence: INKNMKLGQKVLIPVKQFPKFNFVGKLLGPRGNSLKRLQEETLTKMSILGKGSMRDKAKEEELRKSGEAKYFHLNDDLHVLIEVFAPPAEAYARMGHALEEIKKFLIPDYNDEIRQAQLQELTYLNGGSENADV
Nature of the data set: NMR 15N-1H HSQC CSP; T-STAR KH: 10 mM Tris-HCl pH 7 (also given as pH 6.5, 50 mM NaCl, 30 C); Sam68 KH: 20 mM sodium phosphate pH 7.0, 50 mM NaCl, 20 C; about 0.2 mM protein, protein:RNA 1:0.5 and 1:1.

Data set [3] concerns the target T1, T-STAR KH. Nature of the data set: NMR 15N-1H HSQC CSP; fast exchange; T-STAR KH: 10 mM Tris-HCl pH 7 (also given as pH 6.5, 50 mM NaCl, 30 C); Sam68 KH: 20 mM sodium phosphate pH 7.0, 50 mM NaCl, 20 C; about 0.2 mM protein, protein:RNA 1:0.5 and 1:1.
Data set [4] deals with T2, Sam68 KH. Nature of the data set: NMR 15N-1H HSQC CSP; T-STAR KH: 10 mM Tris-HCl pH 7 (also given as pH 6.5, 50 mM NaCl, 30 C); Sam68 KH: 20 mM sodium phosphate pH 7.0, 50 mM NaCl, 20 C; about 0.2 mM protein, protein:RNA 1:0.5 and 1:1.
The target of data set [5] is T1, T-STAR KH. Nature of the data set: NMR 15N-1H HSQC CSP; fast to intermediate exchange; higher affinity than AAAUAA; T-STAR KH: 10 mM Tris-HCl pH 7 (also given as pH 6.5, 50 mM NaCl, 30 C); Sam68 KH: 20 mM sodium phosphate pH 7.0, 50 mM NaCl, 20 C; about 0.2 mM protein, protein:RNA 1:0.5 and 1:1.

T2 sequence (Q07666 150-260): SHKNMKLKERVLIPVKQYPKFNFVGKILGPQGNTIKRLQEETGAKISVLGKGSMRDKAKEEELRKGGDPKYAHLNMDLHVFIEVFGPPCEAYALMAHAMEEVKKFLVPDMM

As for UAAAAUUUUU (ssRNA), the binding result in the data set with T-STAR KH [1] was “binds”.
On to AUUAAA (ssRNA), for which the binding result with Sam68 KH [2] was “binds”.
As for UAAAUAAUU (ssRNA), the binding result with T-STAR KH [1] is “binds”.
Turning to AAAUAA (ssRNA), the binding result in the data set with T-STAR KH-QUA2 and in the data set with T-STAR KH [3] was “binds” each time.
Consider UUUUUU (ssRNA) [UUUUUU (polyU 6mer)], for which the binding result with Sam68 KH [4] is given as “no binding”.
With AAAAAA (ssRNA) [AAAAAA (polyA 6mer)], the binding result with T-STAR KH [5] is recorded as “binds”.
